Reference: publication doi:10.1101/2021.03.22.436490

Experiments:
[1] = target: Vibrio cholerae Chromosome 2 ParA (ParA2vc) (Vibrio cholerae); assay: negative-stain EM
[2] = target: Vibrio cholerae Chromosome 2 ParA (ParA2vc) (Vibrio cholerae); assay: crystal structure
[3] = target: Vibrio cholerae Chromosome 2 ParA (ParA2vc) (Vibrio cholerae); assay: crystal structure; remark: listed apart in the source

Measured: stoichiometry N

Vibrio cholerae Chromosome 2 ParA (ParA2vc) (natural protein)
2: all assays above
